How the values were obtained:
[1] = molecular target: rat HER2 (Rattus norvegicus, UniProt P06494); test: Binding of antibody to rat HER2
[2] = molecular target: HER2 (Homo sapiens, UniProt P04626); test: Inhibition of HER2 functional activity in vitro

rat HER2, sequence (P06494 23-1257): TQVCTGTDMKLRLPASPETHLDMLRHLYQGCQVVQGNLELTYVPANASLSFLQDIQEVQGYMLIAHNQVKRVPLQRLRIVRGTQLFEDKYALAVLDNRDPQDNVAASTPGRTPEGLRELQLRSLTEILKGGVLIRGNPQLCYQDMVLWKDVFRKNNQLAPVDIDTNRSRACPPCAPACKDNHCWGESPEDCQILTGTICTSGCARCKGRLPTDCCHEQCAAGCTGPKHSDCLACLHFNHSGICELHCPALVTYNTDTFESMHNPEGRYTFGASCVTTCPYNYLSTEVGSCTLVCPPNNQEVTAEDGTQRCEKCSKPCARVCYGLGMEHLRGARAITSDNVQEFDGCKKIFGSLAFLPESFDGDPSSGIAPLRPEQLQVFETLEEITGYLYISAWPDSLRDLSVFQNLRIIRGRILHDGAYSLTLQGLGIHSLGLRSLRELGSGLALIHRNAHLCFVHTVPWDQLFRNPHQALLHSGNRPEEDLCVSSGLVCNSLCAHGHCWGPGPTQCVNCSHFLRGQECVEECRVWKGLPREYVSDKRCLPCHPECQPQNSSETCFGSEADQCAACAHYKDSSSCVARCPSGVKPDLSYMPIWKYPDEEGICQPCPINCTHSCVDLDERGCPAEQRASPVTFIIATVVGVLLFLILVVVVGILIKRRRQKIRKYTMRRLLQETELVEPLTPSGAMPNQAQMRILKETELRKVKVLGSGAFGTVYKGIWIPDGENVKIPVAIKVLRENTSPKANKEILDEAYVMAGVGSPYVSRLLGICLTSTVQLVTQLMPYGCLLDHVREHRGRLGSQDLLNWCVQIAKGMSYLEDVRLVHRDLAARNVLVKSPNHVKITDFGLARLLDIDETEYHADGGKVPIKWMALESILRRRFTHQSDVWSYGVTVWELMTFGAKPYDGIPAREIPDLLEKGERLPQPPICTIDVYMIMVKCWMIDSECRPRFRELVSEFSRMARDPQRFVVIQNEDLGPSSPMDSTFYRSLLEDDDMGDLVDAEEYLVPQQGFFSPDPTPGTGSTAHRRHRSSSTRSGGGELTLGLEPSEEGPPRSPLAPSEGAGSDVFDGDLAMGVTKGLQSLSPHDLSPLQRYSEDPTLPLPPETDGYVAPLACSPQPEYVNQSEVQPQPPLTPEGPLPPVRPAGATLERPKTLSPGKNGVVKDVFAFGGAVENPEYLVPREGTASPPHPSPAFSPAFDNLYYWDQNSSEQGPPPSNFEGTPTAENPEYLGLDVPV

Substance: XMT-1519: anti-Her2 antibody disclosed in U.S. Pat. No. 9,555,112 and 9,738,720
- Binding to rat HER2 [1]: does not bind
- Functional activity of HER2 [2]: inhibit the functional activity of HER2

Reference: patent publication US20230398229A1, “ANTIBODY DRUG […] AGONISTS, COMBINATIONS AND METHODS OF USE” (Mersana Therapeutics, Inc., priority 2022, published 2023)
